Assay results as given in the nanobody polyreactivity screen of Harvey et al. (2022).

Test: yeast display, Sf9 membrane polyspecificity reagent, FACS + sequencing; frameworks hold sequencing errors
Outline: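 A synthetic nanobody library was expressed on Saccharomyces cerevisiae BJ5465 by galactose induction for 36–48 hours. The library was stained for 1 hour at 4 °C with 10% biotinylated, detergent-solubilized Sf9 membrane reagent and enriched with streptavidin microbeads before FACS. Low and high (top ~1%) gates were set on anti-HA fluorescence for expression and streptavidin fluorescence for reagent binding, and each polyreactivity label reflects the gate of origin.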

Row | Sequence | polyreactivity (PSR sort gate)
1 | QVQLVESGGGLVQAGGSLRLSCAASGFIFTDYAMGWYRQAPGKERELVATISWSGSSTYYADSVKGRFTISRDNAKNTVYLQMNSLKPEDTAVYYCAAEFWYTYPYLVDYWGQGTKVTVSS | low polyreactivity
2 | QVQLVESGGGLVQAGGSLRLSCAASGSTFSYYTMGWYRQAPGKERELVAAITRRGDSTYADSVKGRFTISRDNAKTTVYLQMNSLKPEDTAVYYCAADASVGVSGMDYWGQGSQVTVSS | low polyreactivity
3 | QVQLVESGGGLVQAGGSLRLSCAASGRTFDSNAMGWYRQAPGKERELVAGISESGGSTYYADSVKGRFTISRDNAKNTVYLQMNSLKPEDTAVYYCAYSGITVYYHRAVDFIVSYDYWGQGTQVTVSS | low polyreactivity
4 | QVQLVESGGGLVQAGGSLRLSCAASGSIFYVNAMGWYRQAPGKERELVASITASGGTTYYADSVKGRFTISRDNAKNNVYLQMNSLKPEDTAVYYCAATFIQVVVNVQLYDYDYWGQGTQVTVSS | low polyreactivity
5 | QVQLVESGGGLVQAGGSLRLSCAASGRTFKFNAMGWYRQAPGKERELVAGITWTGSTTSYADSVKGRFTISRDNAKNTVYLQMNSLKPEDTAVYYCDADKIRFWYHGFYYRGQGTQVTVSS | low polyreactivity
6 | QVQLVESGGGLVQAGGSLRLSCGASGRTFKLYAMGWYRQAPAKERELVATIRRSGTRTYADSVKGRFTISRDNAKNTVYLQINSLKQEDTAVYYCAATTYAYVYHRYDYWGQGTQVTVSS | high polyreactivity
7 | QVQLVESGGGLVRARGSLRLSWAASGNTFSSNAMGWYRQAPGKERELVAGITKSGGRTYYADSVKGSFTISRDNAKNTVYLQMNSLKPEDTAVYYCNRRACPYSIPYYYWGQGTQVTVSS | high polyreactivity
8 | QVQLVESGGGLVQAGGSLRLSCAASGFIFYDYAMGWYRQGPGKERELGAAISSTAFGTYYADSVKGRFTISRDKAKNTVYLQMNILKPEDTAVYYCAAAVSPHSEGFGEYNDWGQGTQVTVSS | low polyreactivity
9 | QVQLVESGGGLVQAGGSLRLSCAASGFIFKSYAMGWYRQAPGKERELVAAISGRGGSTYYADSVKGRFTISRDNAKNTVYLQMNSLKPEDTAVYYCNVGPSTYYQYDYWGQGTQVTVSS | high polyreactivity
10 | QVQLVESGGGLVQAGGSLRLSCAASGFTFVVYTMGWYRQAPGKEREFVAVISESGGSTYYADSVKGRFTISRDNAKNTVYLQMNSLKPEDTAVYYCAARTRYYRDNYWGQVTQVTVSS | high polyreactivity
11 | QVQLVESGGGLVQAGGSLRLSCAASGLTFVAYAMGWYRQAPGKERELVAAITRRGGSTYYADSVTGRFTISRDNAKNTVYLQMNSLKPEDTAVYYCAAEGSYSRNPGFDYWGQGTQVTVSS | high polyreactivity
12 | QVQLVESGGGLVQAGGSLRCSCAASGFTFYSYAMGWYRQAPGKERELVAAITESGGSTYYADSVKGRFTISRDNAKNTVYLQMNSLKPEDTAVYYCAAQFAQRPQYYYFVWYDYWGQGTQVTVSS | low polyreactivity
13 | QVQLVESGGGLVQAGGSLRLSCAASGSIFTAYAMGWYRQAPGKERELVAAIDDSGDSTYYADSVKGRFTISRDNAKNTVYLQMNSLKPEDTAVYYCKAEYRVNKEYDYWGQGTQVTVSS | low polyreactivity
14 | QVQLVESGGGLVQAGGSLRLSCAASGLILQYYVMGWYRQAPGKERELVAAITRSGGGTYYADSVKGRFTISRDKAKNTVYLQMNSLIPEDTAVYYCAAQRQYGKFDYWGQGTQVTVSS | high polyreactivity
15 | QVQLVESGGGLVQAGGSLRLSCAASGSTFRYNTMGWYRQAPGKERELVAAINISSSSTYYADSVKGRFTISRDNAKNTVYLQMNSLKPEDTAVYYCANRDYVPIATDENDDYWGQGTQVTVSS | low polyreactivity
16 | QVQLVESGGGLVQAGGSLRLSCAASGFIFERYTMGWYRQAPGKERELVAAISDSGGSTYYADSVKGRFTISRDNAKNTVYLQMNSLKPEDTAVYYCAAKFRNYRPSKYYYWGQGTQVTVSS | high polyreactivity
17 | QVQLVESGGGLVQAGGSLRLSCADSGSIVLVNAMGWSRQAPGKEREMVAAITYGGDSTYYADSVKGRFTISRDNAKNSVYFQINSLKREDTAVYYFAADAWVGWHDEYDYWGQGTQVTVSS | low polyreactivity
18 | QVQLVESGGGLVQAGGSLRLSCAASGRIFGHYVMGWYRQAPGKERELVAAITWRGGSTYYADSVKGRFTISRDNAKNTVYLQMNSLKPEDTAVYYCNRALPGYGLRRDYWGQATQVTVSS | high polyreactivity
19 | QDQLVESGGALVQAGRSLRLSCAASGIIYIYYAMGWYIQAPGKERELVAAISGSGDSTYYADSVKGRFTISRDNAKNTVYLQMNSLKPEDTAVYYCARRSPNPYSIYYYWGQGTQVTVSS | high polyreactivity
20 | QDQLVESGGGLVQAGGSLRLSCAASGSTFPDYAMGRYRQAPGKERELFAAISSGGSTNYADSVKGRFTISRDNAKNTVYLQMNSLKPEDTAVYYCAADVGAIYDKAVNGYWGQGTQVTVSS | low polyreactivity
21 | QVQLVESGGGLVQAGGSLRLSCAASGFTFSSYAMGWSRQAPGKERELVAAITISGGRTYYADSVKGRFTISRDNAKNTVYLQMNSLIPEDTAVYYCAAVGRLARRDYWGQGTQVTVSS | high polyreactivity
22 | QVQLVESGGGLVQAGGSLRLSCAASGSIFRPYAMGWYRQAPGKERELVAGISLRGGSTSYADSVKGRFTISRDNAKNTVYLQMNSLKPEDTAVYYCAASYWWKGDSTYGYWGQGTQVTVSS | high polyreactivity

Row | Sequence | polyreactivity (PSR sort gate)
23 | QVQLVESGGGLVQAGGSLRLSCAASGYIFVYYAMGWYRQAPGKEREMVAAISSSGDTTYYADSVKGRFTISRDNAKNTVYLQMNSLKPEDTAVYYCAARVRGYSHASNYYWGQGTQVTVSS | high polyreactivity
24 | QVQLVESGGGLVQAGGSLRLSCAASGRIFWTNAMGWYRQAPGKERELVAAISYNGASTFYADSVKGRFTISRDNAKNTVYLQMNSLKPEDTAVYYCNAYSSRYRYNYWGQGTQVTVSS | high polyreactivity
25 | QVQLVESGGGLVQAGGSLRLSCAASGFTCSRYAMGWYRQAPGKERELVAAISSGGSTNYADSVKGRFTISRDNAKNTVYLQMNSLKPEDTAVYYCAVTWRYKGYYWGQGTQVTVSS | high polyreactivity
26 | QVQLVESGGGLVQAGGSLRLSCAASGSTFTGYAMGWYRQAPGKERELVAAISISGGRTFYADSVKGRFTISRDNAKNTVYLQMNSLKPEDTAVYFCAAYLRGSKYSFDYWVQGTQVTVSS | high polyreactivity
27 | QVQLLESGGGLVQAGGSIRLTCAASGRIFYGNTMGWYRQAPGQETELVAAITIGDSTNYADSVKGRFTISRDNAKYTVYLQMNSLKPEDTAVFYCGKRNWWGYYKYDYWGQGSQVTVSS | low polyreactivity
28 | QVQLVESGGGLVQAGGSLRLSCAASGSIFTFYAMGWYRQAPGKERELVATINRIGGNTYYADSVKGRFTISRDNAKNSVYLLMKSLKPEETAVYYCAVCPYTRPYYRTFDHWGQGTLVTVSS | low polyreactivity
29 | QVQLVESGGGLVQAGGSLRLSCAASGSIFTPNVMGWYRHAPGKERELVAAISQSGGSTFYADSVKGRFTISRDNAKNTVYLQMNSLKPEDTAVYYCNVDDNSEYDYWGQGSQVTVSS | low polyreactivity
30 | QVQLVESGGGLVQAGGSLRLSCAASGRIFFIYAMGWYRQAPGKERELVAAISYDSGSTYYADSVKGRFTISRDNAKNTVYLQMNSLKPEDTAVYYCAAEWGLVIYSTYGYDYWGQGTQVTVSS | low polyreactivity
31 | QVQLVESGGGLVQAGGSLRLSCAASGRIFRRYAMGWYRQAPGKERELVASISSGGSTNYADSVKGRFTISRDNAKNTVYLQMNSLKPEDTAVYYCNVYYGYFRSRYGYWGQGTQVTVSS | high polyreactivity
32 | QVQLVESGGGLVQAGGSLRLSCAASGSTFNRYAMGWYRQAHGKERELVAGISYRGGTYYSDSVKGRFTISRDNAKNTVYLQMNSLKPEDTAVYYCNVVRRGTTSYDDYEYWGQGTQVTVSS | high polyreactivity
33 | QVQLVESGRGLVQAGGSLRLSCAASGSTFPGNAMGWYRQAPGKERELVAAIRDRGTSTYYADSVKGRFTISRDNAKNTVYLQMNSLKPEDTAVYYCAAASSVAKGRWRLYDYWGQGTQVTVSS | high polyreactivity
34 | QVQLVESGVGLVQAGGSLRLRCAASGSTFIVYALRWSRQAPGKERELVAAISWNGGRTYYADSVKGRFTISRDNAKKTVYLQMNSLKPEDTAVYYCPATLYNTEDDYWGQGTQVTLSS | low polyreactivity
35 | QVQRVESGGGLVQAGGRLRLSCAASGRIFIYYAMGWYRQAPGKERELVAAISSSGASTYYADSVKGRFTISRDNAKNTVYLQMISLKPEDTAVYYCAALYYRGGAFPLDYWGQGTQVTVSS | low polyreactivity
36 | QVQLVESGGGLVQAGGSLRLSCAASGRIFYRYDMGWYRQAPGKERELVAAISSGGNTNYADSVKGRFTISRDNAKNTVYLQMNCLKPEDTAVYYCAKRYRSYQGSSRQGNYGYWGQGTQVSVSS | high polyreactivity
37 | QVQLVESGGGLVQAGGSLRLSCAASGSTFYANTMGWYRTAPGKERELVAAITYGGGNTYYADSVKGRFTISRDNAKNTVYLQMNSLKPEDTAVYYCAARDYVSYYTRFDYWGQGTQVTVSS | high polyreactivity
38 | QVQLVESGGGLVQAGGSLRLSCAASGSNYYYYAIGWYRQAPGKERELVAAISWSGASTFYADSVKGRFTSSRDNAKNTVYLQMNSLKPEDTAVYYCAARYYGQPQYQPLYYWGQGTQVTVSS | high polyreactivity
39 | QVQLVESGGGLVQAGGSLRLSCAASGSTFTSYVMGWYRQAPGKEREFVAAITSSGGDTYYADSVKGRFTISRDNAKNTVYVQMNSLKPEDTEVYYCATRSYYRSSYYRNRYPYDYWGQGTLVTVSS | low polyreactivity
40 | QVQLEESAGGLVQAGGSLRLSCAASGFTLYYYSMGWYRKAPGKERELVAAIAVSGTSTYYADSVKGRFTISRDNAKNTVYLQMNSLKPEDTAVYYCNKVFRVYQTFKAWGRDYWGQGTQVTVSS | high polyreactivity
41 | QVQLVESGVGLVKAGGILRLSCAASGFTFASNVMGWSRQAPGKERELVAAITSGASTNYADSVKGRFTISRDNAKNTVYLQMNSLKPEDTAVYYCAAGRQWYVFYEFDYWGQGTQVTVSS | high polyreactivity
42 | QVQLVESGGGLVQAGGSLRLSCAASGRIFDKYAMGWYRQAPGKERELVAAITRSGGRTYYADSVKGRFTISRDNAKNTVYLQMNSLKPEDTAVYYCAARYVSRFDWGQGTQVTVSS | high polyreactivity
43 | QVQLVESRGGLVQAGGSLRLTCAASGYTFVYNGMGWYRQAPGKERELVAAFRRRTGTTYYADSVKGRFTISRDNAKNTVYLQMNSLKPEDSSVYYSAATGFWCYDWGQGSQVTVSS | high polyreactivity
